Laboratory results as given in patent US11278600B2, “Human alpha-galactosidase variants” (Codexis, Inc., priority 2014, dated 2022).
Numbering of substitutions follows the chain as printed.

B1: 255 (protein)
chain: LDNGLARTPTMGWLHWERFMCNLDCQEEPDSCISEKLFMEMAELMVSEGWKDAGYEYLCIDDCWMAPQRDSEGRLQADPQRFPHGIRQLANYVHSKGLKFGIYADVGNKTCAGFPGSFGYYDIDAQTFADWGVDLLKFDGCYCDSLENLADGYKHMSLALNRTGRSIVYSCEWPLYMWPFQKPNYTEIRQYCNHWRNFADIDDSWASVKSILDWTSFNQEKIVDVAGPGGWNDPDMLVIGNFGLSWDQQVTQMALWAIMAAPLFMSNDLRHISPQAKALLQDKDVIAINQDPLGKQGYQLRKGDNFEVWERPLSGLAWAVAIINRQEIGGPRSYTIAVASLGDGVACNPACFITQLLPVKRKLGLYEWTSRLRSHVNPTGTVLLQLENTMQMSLKDLL
modifications: Synthetic Polypeptide sequence of Variant No. 255 of mature Human GLA
B2: 264 (protein)
chain: B1 chain with V208I, I322V, L365F, R373K
modifications: Synthetic Polypeptide sequence of Variant No. 264 of mature Human GLA
B3: 258 (protein)
chain: B1 chain with K221T, D247N, L365F
modifications: Synthetic Polypeptide sequence of Variant No. 258 of mature Human GLA
B4: 263 (protein)
chain: B1 chain with V208I, I322V, D343K, L365F
modifications: Synthetic Polypeptide sequence of Variant No. 263 of mature Human GLA
B5: 257 (protein)
chain: B1 chain with K221T, D247N, K302Q, I322M
modifications: Synthetic Polypeptide sequence of Variant No. 257 of mature Human GLA
B6: 259 (protein)
chain: B1 chain with V208I, K221R, D247N, K302Q, I322V, D343K, R373K
modifications: Synthetic Polypeptide sequence of Variant No. 259 of mature Human GLA
B7: 261 (protein)
chain: B1 chain with V208I, K302Q, I322V, L365F
modifications: Synthetic Polypeptide sequence of Variant No. 261 of mature Human GLA
B8: 256 (protein)
chain: B1 chain with I322V
modifications: Synthetic Polypeptide sequence of Variant No. 256 of mature Human GLA
B9: 266 (protein)
chain: B1 chain with V208I, K221T, D247N, K302Q, D343E, R373K, V376I
modifications: Synthetic Polypeptide sequence of Variant No. 266 of mature Human GLA
B10: 262 (protein)
chain: B1 chain with V208I, I322V, D343K, R373K
modifications: Synthetic Polypeptide sequence of Variant No. 262 of mature Human GLA
B11: 265 (protein)
chain: B1 chain with V208I, D247N, K302Q, I322M, D343K, L365F, R373K
modifications: Synthetic Polypeptide sequence of Variant No. 265 of mature Human GLA
B12: 260 (protein)
chain: B1 chain with V208I, K221R, K302Q, I322M, D343K, R373K
modifications: Synthetic Polypeptide sequence of Variant No. 260 of mature Human GLA
B13: 267 (protein)
chain: B1 chain with V208I, K221T, I322M, R373K, V376I
modifications: Synthetic Polypeptide sequence of Variant No. 267 of mature Human GLA

test: HTP-analysis of supernatants pretreated with bovine serum (MUGal hydrolysis); assay type: biochemical; settings: activity of the variant/activity of Rd2BB (SEQ ID NO: 10), yeast culture supernatant
Procedure, shortened: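 Yeast INVSc1 culture supernatants containing secreted GLA variants were mixed with bovine serum (20:80) and held 1 h at 37° C. Serum-treated samples then reacted with MUGal (4 mM stock) in citrate/McIlvaine buffer (pH 4.3/4.8) for 180 min at 37° C., were quenched with sodium carbonate, and read by fluorescence (Ex 355, Em 448 nm).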

Molecule	Relative Activity of GLA Variants After Challenge with Serum
B1	++ (++ = 1.5 to 2.5 relative activity over Rd2BB (SEQ ID NO: 10))
B2	++ (++ = 1.5 to 2.5 relative activity over Rd2BB (SEQ ID NO: 10))
B3	++ (++ = 1.5 to 2.5 relative activity over Rd2BB (SEQ ID NO: 10))
B4	+++ (+++ = >2.5 relative activity over Rd2BB (SEQ ID NO: 10))
B5	++ (++ = 1.5 to 2.5 relative activity over Rd2BB (SEQ ID NO: 10))
B6	+ (+ = 0.5 to 1.5 relative activity over Rd2BB (SEQ ID NO: 10))
B7	+ (+ = 0.5 to 1.5 relative activity over Rd2BB (SEQ ID NO: 10))
B8	+++ (+++ = >2.5 relative activity over Rd2BB (SEQ ID NO: 10))
B9	++ (++ = 1.5 to 2.5 relative activity over Rd2BB (SEQ ID NO: 10))
B10	+++ (+++ = >2.5 relative activity over Rd2BB (SEQ ID NO: 10))
B11	+ (+ = 0.5 to 1.5 relative activity over Rd2BB (SEQ ID NO: 10))
B12	+ (+ = 0.5 to 1.5 relative activity over Rd2BB (SEQ ID NO: 10))
B13	+++ (+++ = >2.5 relative activity over Rd2BB (SEQ ID NO: 10))

test: HTP-analysis of supernatants pretreated with acid (MUGal hydrolysis); assay type: biochemical; settings: challenge at pH 4.2; activity of the variant/activity of Rd2BB (SEQ ID NO: 10); yeast culture supernatant
Procedure, shortened: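 Yeast INVSc1 supernatant, GLA variants; acid challenge: McIlvaine pH 3.3-4.3, 37° C., 1-3 h. Assay: MUGal in McIlvaine pH 4.8 plus citrate pH 4.3, 37° C., 30-180 min, Na2CO3 stop, Ex 355/Em 448 nm.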

Molecule	Relative Activity of GLA Variants After Challenge at pH 4.2
B1	+++ (+++ = >2.5 relative activity over Rd2BB (SEQ ID NO: 10))
B2	++ (++ = 1.5 to 2.5 relative activity over Rd2BB (SEQ ID NO: 10))
B3	++ (++ = 1.5 to 2.5 relative activity over Rd2BB (SEQ ID NO: 10))
B4	++ (++ = 1.5 to 2.5 relative activity over Rd2BB (SEQ ID NO: 10))
B5	++ (++ = 1.5 to 2.5 relative activity over Rd2BB (SEQ ID NO: 10))
B6	+ (+ = 0.5 to 1.5 relative activity over Rd2BB (SEQ ID NO: 10))
B7	++ (++ = 1.5 to 2.5 relative activity over Rd2BB (SEQ ID NO: 10))
B8	+++ (+++ = >2.5 relative activity over Rd2BB (SEQ ID NO: 10))
B9	++ (++ = 1.5 to 2.5 relative activity over Rd2BB (SEQ ID NO: 10))
B10	+++ (+++ = >2.5 relative activity over Rd2BB (SEQ ID NO: 10))
B11	+ (+ = 0.5 to 1.5 relative activity over Rd2BB (SEQ ID NO: 10))
B12	+ (+ = 0.5 to 1.5 relative activity over Rd2BB (SEQ ID NO: 10))
B13	+++ (+++ = >2.5 relative activity over Rd2BB (SEQ ID NO: 10))

test: HTP-analysis of supernatants pretreated with base (MUGal hydrolysis); assay type: biochemical; settings: challenge at pH 7.6; activity of the variant/activity of Rd2BB (SEQ ID NO: 10); yeast culture supernatant
Procedure, shortened: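 Supernatants from INVSc1 yeast expressing GLA variants (SD-Ura, 66-84 h, 30° C) were mixed with McIlvaine buffer pH 7.0-8.2 or 200 mM sodium bicarbonate pH 9.1-9.7 and held 1-18 h at 37° C. Residual activity was then measured on MUGal at pH 4.8/4.3, 37° C, 30-180 min, by fluorescence (Ex 355/Em 448 nm).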

Molecule	Relative Activity of GLA Variants After Challenge at pH 7.6
B1	+++ (+++ = >2.5 relative activity over Rd2BB (SEQ ID NO: 10))
B2	+++ (+++ = >2.5 relative activity over Rd2BB (SEQ ID NO: 10))
B3	+++ (+++ = >2.5 relative activity over Rd2BB (SEQ ID NO: 10))
B4	++ (++ = 1.5 to 2.5 relative activity over Rd2BB (SEQ ID NO: 10))
B5	++ (++ = 1.5 to 2.5 relative activity over Rd2BB (SEQ ID NO: 10))
B6	+ (+ = 0.5 to 1.5 relative activity over Rd2BB (SEQ ID NO: 10))
B7	++ (++ = 1.5 to 2.5 relative activity over Rd2BB (SEQ ID NO: 10))
B8	+++ (+++ = >2.5 relative activity over Rd2BB (SEQ ID NO: 10))
B9	+++ (+++ = >2.5 relative activity over Rd2BB (SEQ ID NO: 10))
B10	+++ (+++ = >2.5 relative activity over Rd2BB (SEQ ID NO: 10))
B11	+ (+ = 0.5 to 1.5 relative activity over Rd2BB (SEQ ID NO: 10))
B12	+ (+ = 0.5 to 1.5 relative activity over Rd2BB (SEQ ID NO: 10))
B13	+++ (+++ = >2.5 relative activity over Rd2BB (SEQ ID NO: 10))

test: HTP-analysis of yeast culture supernatants, no challenge (MUGal hydrolysis); assay type: biochemical; settings: activity of the variant/activity of Rd2BB (SEQ ID NO: 10), yeast culture supernatant
Procedure, shortened: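 GLA variants expressed in yeast INVSc1, secreted into SD-Ura broth over 66-84 h at 30° C; clarified supernatants tested without challenge. Supernatant mixed with McIlvaine buffer pH 4.8 and 2 mM MUGal (citrate/KCl, pH 4.6), 37° C for 30-180 min, carbonate-quenched, fluorescence Ex 355/Em 448 nm.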

Molecule	Relative Activity of GLA Variants After No Challenge (NC)
B1	+++ (+++ = >2.5 relative activity over Rd2BB (SEQ ID NO: 10))
B2	++ (++ = 1.5 to 2.5 relative activity over Rd2BB (SEQ ID NO: 10))
B3	+++ (+++ = >2.5 relative activity over Rd2BB (SEQ ID NO: 10))
B4	+ (+ = 0.5 to 1.5 relative activity over Rd2BB (SEQ ID NO: 10))
B5	++ (++ = 1.5 to 2.5 relative activity over Rd2BB (SEQ ID NO: 10))
B6	+ (+ = 0.5 to 1.5 relative activity over Rd2BB (SEQ ID NO: 10))
B7	++ (++ = 1.5 to 2.5 relative activity over Rd2BB (SEQ ID NO: 10))
B8	++ (++ = 1.5 to 2.5 relative activity over Rd2BB (SEQ ID NO: 10))
B9	++ (++ = 1.5 to 2.5 relative activity over Rd2BB (SEQ ID NO: 10))
B10	++ (++ = 1.5 to 2.5 relative activity over Rd2BB (SEQ ID NO: 10))
B11	+ (+ = 0.5 to 1.5 relative activity over Rd2BB (SEQ ID NO: 10))
B12	+ (+ = 0.5 to 1.5 relative activity over Rd2BB (SEQ ID NO: 10))
B13	+++ (+++ = >2.5 relative activity over Rd2BB (SEQ ID NO: 10))
